Test results as given in the supplement of paper PMC10724198.
± gives the standard deviation of the averaged measurements.

Test system: Saccharomyces cerevisiae
Assay: protein stability index of tFT-peptide fusion (C-terminal peptide) (PSI (0-1 scale)); higher = more stable (slower turnover)
Conditions: genetic background: wild type; temperature: 30 C
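Note: PSI is a weighted mean of sequencing reads over stability bins, variants kept only with over 10 reads, mCherry proximal and sfGFP distal, peptide attached via GGGS linker.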

RDCVVSCSCIHI
protein stability index: 0.694 ± 0.057

RDGKRHSSQWRG
protein stability index: 0.659 ± 0.037

RDGLWCFSEFLG
protein stability index: 0.731 ± 0.048

RDGRAGGDIGAT
protein stability index: 0.618 ± 0.11

RDNNSNEMGQAI
protein stability index: 0.723 ± 0.016

RDPIGRPEMSKI
protein stability index: 0.67 ± 0.086

RDPTPPNPPPSR
protein stability index: 0.763 ± 0.057

RDTFLKMLDERN
protein stability index: 0.732 ± 0.042

RDVVRGVSRGGR
protein stability index: 0.714 ± 0.02

REAPPYQSHVAS
protein stability index: 0.676 ± 0.065

REDAKLGYGKKK
protein stability index: 0.637 ± 0.061

REGGVLGVVKWS
protein stability index: 0.668 ± 0.02

REGPSPLDPSRF
protein stability index: 0.684 ± 0.051

RELKSPRCRTHR
protein stability index: 0.653 ± 0.12

RELLWFIFTGFC
protein stability index: 0.622 ± 0.042

REREKITRKRNT
protein stability index: 0.69 ± 0.01

RERGVSVKLGGG
protein stability index: 0.677 ± 0.026

RESPYSRSRCLL
protein stability index: 0.733 ± 0.17

RETMFTRFRGSD
protein stability index: 0.627 ± 0.063

RFAFLPPPPLPP
protein stability index: 0.636 ± 0.011

RFCQSHTSVSSF
protein stability index: 0.652 ± 0.039

RFGGGAVWGLGG
protein stability index: 0.666 ± 0.02

RFGPPPPPPSTL
protein stability index: 0.71 ± 0.035

RFGRGAVGGLGG
protein stability index: 0.668 ± 0.02

RFGSGYLRRYTH
protein stability index: 0.776 ± 0.011

RFIGVVTRLRRC
protein stability index: 0.643 ± 0.042

RFKLEKIKHKKK
protein stability index: 0.755 ± 0.054

RFPRSSPPHRSL
protein stability index: 0.717 ± 0.023

RFRSMTGVIVSE
protein stability index: 0.6772 ± 0.002

RFSPRSLIFFPS
protein stability index: 0.612 ± 0.03

RFTPLSFCTDRV
protein stability index: 0.658 ± 0.025

RGARTGGGRDGS
protein stability index: 0.705 ± 0.025

RGEGGRALGVGR
protein stability index: 0.688 ± 0.015

RGEGGRGRTVEG
protein stability index: 0.631 ± 0.077

RGEVQPRRDPGA
protein stability index: 0.662 ± 0.0095

RGFGSGTVGVQS
protein stability index: 0.616 ± 0.034

RGFMLGFVSRFS
protein stability index: 0.625 ± 0.039

RGFPPPPLLSSR
protein stability index: 0.74 ± 0.059

RGGGEWGKEDSQ
protein stability index: 0.705 ± 0.019

RGGGGRGWGSRG
protein stability index: 0.67 ± 0.027

RGGGGVLEVLLG
protein stability index: 0.5347 ± 0.0046

RGGGQVLGVRVG
protein stability index: 0.667 ± 0.089

RGGGSWWCGGDQ
protein stability index: 0.76 ± 0.024

RGGGVGRGLGGK
protein stability index: 0.605 ± 0.066

RGGLRRGSGREG
protein stability index: 0.684 ± 0.068

RGGPLSSGVVLV
protein stability index: 0.714 ± 0.049

RGGRGAVRWLRG
protein stability index: 0.66791 ± 7.1e-07

RGGVAGQPDAGR
protein stability index: 0.666 ± 0.014

RGKIKKTRKDNK
protein stability index: 0.598 ± 0.021

RGKTGLTRYIGV
protein stability index: 0.709 ± 0.074

RGLGGGAECGRW
protein stability index: 0.785 ± 0.12

RGLGVFGVVSPA
protein stability index: 0.7 ± 0.057

RGLRIFMSRAWH
protein stability index: 0.75 ± 0.043

RGLVLWVVSGRG
protein stability index: 0.6155 ± 0.0045

RGLVSPPPPLPS
protein stability index: 0.681 ± 0.024

RGLYPLKVDCQW
protein stability index: 0.753 ± 0.036

RGPRGGFHFFRA
protein stability index: 0.6657 ± 0.003

RGREGSSVAVMV
protein stability index: 0.646 ± 0.04

RGRFGYTSSTLA
protein stability index: 0.686 ± 0.041

RGRGRVFVFGNW
protein stability index: 0.726 ± 0.033

RGRLRFGNTTGI
protein stability index: 0.691 ± 0.035

RGRRPRPGGTGT
protein stability index: 0.641 ± 0.016

RGRRRGGQQIAE
protein stability index: 0.666 ± 0.007

RGRSGASSGWRG
protein stability index: 0.659 ± 0.044

RGSQLFWSRGYL
protein stability index: 0.707 ± 0.035

RGSSPRAVTVWM
protein stability index: 0.804 ± 0.075

RGTDSRERIKRR
protein stability index: 0.721 ± 0.06

RGTWSLFYAFLD
protein stability index: 0.578 ± 0.035

RGVGAGGLEGIG
protein stability index: 0.535 ± 0.011

RGVGCLIITHSL
protein stability index: 0.608 ± 0.073

RGVGGVLEVLLG
protein stability index: 0.5256 ± 0.0032

RGVGWGGLEGIG
protein stability index: 0.5235 ± 0.0014

RGVGWVLEVLLG
protein stability index: 0.518 ± 0.0087

RGVPPPCPLLAA
protein stability index: 0.599 ± 0.077

RGWAGGRQGCGG
protein stability index: 0.746 ± 0.055

RGWVEWGVRASE
protein stability index: 0.749 ± 0.06

RGYEGSEVQVGV
protein stability index: 0.677 ± 0.043

RGYGRGWRGVGA
protein stability index: 0.747 ± 0.18

RGYLAKELGVKS
protein stability index: 0.652 ± 0.02

RHAFGSSHVRFF
protein stability index: 0.679 ± 0.024

RHLVSPSTRAIS
protein stability index: 0.77 ± 0.15

RHMLSDFIDACS
protein stability index: 0.72 ± 0.12

RHPPPRSSPPDL
protein stability index: 0.639 ± 0.095

RHPVFSSTVSYI
protein stability index: 0.738 ± 0.03

RHSREPRASMTR
protein stability index: 0.641 ± 0.072

RHTFMCQRRVGL
protein stability index: 0.78 ± 0.084

RHVSHASRLTPG
protein stability index: 0.602 ± 0.11

RHYGVTSLISLQ
protein stability index: 0.674 ± 0.01

RIAPSLPPSSFL
protein stability index: 0.688 ± 0.0095

RIATRCEGPGHK
protein stability index: 0.663 ± 0.015

RIDLFCVRSSLV
protein stability index: 0.6573 ± 0.0054

RIGEHGWLTGYI
protein stability index: 0.736 ± 0.012

RILVYRKENRKN
protein stability index: 0.678 ± 0.052

RINKKRETNQGK
protein stability index: 0.685 ± 0.05

RIQMSGHTNLVG
protein stability index: 0.686 ± 0.024

RISPRVSARLCI
protein stability index: 0.616 ± 0.007

RITYIANNVMLF
protein stability index: 0.652 ± 0.028

RIYDNKNTGIYH
protein stability index: 0.707 ± 0.022

RKCMSNSKNNNE
protein stability index: 0.669 ± 0.018

RKEAVTQTQKNT
protein stability index: 0.672 ± 0.051

RKEQRTERKSQK
protein stability index: 0.721 ± 0.066

RKGERRKKKKRR
protein stability index: 0.677 ± 0.051

RKGKKNKKPKKQ
protein stability index: 0.612 ± 0.02

RKKEKKERKERK
protein stability index: 0.66 ± 0.069

RKKENKIANRKI
protein stability index: 0.6893 ± 0.00094

RKKIIRDKLNTS
protein stability index: 0.709 ± 0.051

RKKKKKKRGKNR
protein stability index: 0.621 ± 0.043

RKKREKNKKRKE
protein stability index: 0.695 ± 0.049

RKKYPLMINGKR
protein stability index: 0.711 ± 0.0073

RKMNEEKEIRRQ
protein stability index: 0.6569 ± 0.0065

RKNQNAWMPALQ
protein stability index: 0.702 ± 0.1

RKRWQWGRVRGV
protein stability index: 0.617 ± 0.11

RKSCKRNERIRK
protein stability index: 0.669 ± 0.035

RKSIGTAYRMPR
protein stability index: 0.755 ± 0.081

RKSSLVARTGMI
protein stability index: 0.623 ± 0.071

RKTEGGGEGLAV
protein stability index: 0.728 ± 0.035

RLARAPTQPRLS
protein stability index: 0.67 ± 0.062

RLASGGSAFINL
protein stability index: 0.78 ± 0.2

RLAVLSLPPHPT
protein stability index: 0.6685 ± 0.0037

RLCSPVSVLLPP
protein stability index: 0.713 ± 0.047

RLEAVLCRRFLR
protein stability index: 0.6561 ± 0.0026

RLFFSRSVRSFF
protein stability index: 0.529 ± 0.017

RLFTTVHSLQDV
protein stability index: 0.674 ± 0.016

RLGNPPPFSTLG
protein stability index: 0.691 ± 0.075

RLGWGGVGGAGV
protein stability index: 0.711 ± 0.033

RLIPPQTAHEFP
protein stability index: 0.685 ± 0.028

RLKFHRLVMTGY
protein stability index: 0.612 ± 0.031

RLKTNKVIIKIK
protein stability index: 0.6665 ± 0.0032

RLLAGLPLGGGN
protein stability index: 0.656 ± 0.051

RLLCSETPPTLA
protein stability index: 0.665 ± 0.014

RLLMIFTSKMFM
protein stability index: 0.6623 ± 0.0019

RLLVSDSLLLGC
protein stability index: 0.684 ± 0.014

RLNNRVMGHIEA
protein stability index: 0.6673 ± 0.0062

RLNRSRAVTFRI
protein stability index: 0.663 ± 0.019

RLPGLTHFLPKI
protein stability index: 0.654 ± 0.038

RLPLSSPLRFSL
protein stability index: 0.712 ± 0.06

RLPPLLVPFPSS
protein stability index: 0.694 ± 0.015

RLPPPPPPPSTP
protein stability index: 0.725 ± 0.053

RLPPPPPSPFPS
protein stability index: 0.778 ± 0.056

RLPRHLPPAPAL
protein stability index: 0.679 ± 0.025

RLPRRSVGRSTG
protein stability index: 0.673 ± 0.078

RLRPVLSPHAPI
protein stability index: 0.648 ± 0.033

RLTEVRVTLGSL
protein stability index: 0.711 ± 0.082

RLTKTRNDLRSL
protein stability index: 0.654 ± 0.016

RLTSPVLLFPLP
protein stability index: 0.713 ± 0.013

RLVRVTSIKGKR
protein stability index: 0.735 ± 0.054
